# According to the supplement of paper PMC7125110:
# ± gives the standard error. This sample holds only a part of the variants without activity.
# B1: glmS ribozyme (parent)
# chain: AUAAAAGCGCCAGAACUACAGAAAUGUAGUUGACGAGGAGGAGGUUUAUCGAAUUUUCGGCGGAUGCCUCCAAA
# Variants of: B1
# Test: self-cleavage kobs at 2500 uM GlcN6P; higher = faster cleavage; RNA array
# Conditions: with glucosamine-6-phosphate
# Outline: (§1)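 Weighted Michaelis–Menten fits across concentrations supplied kcat and KM, based on kobs from one- or two-exponential decay fits to normalised per-tile medians. The data came from barcoded ribozyme variants transcribed in situ by E. coli RNA polymerase on sequenced MiSeq chips and tracked at 37 °C by a hybridised Cy3 probe. Glucosamine-6-phosphate (40 μM to 10 mM) in HEPES/KCl/Mg(OAc)2 buffer was flowed in.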
row,Variant,self-cleavage kobs at 2500 uM GlcN6P [s⁻¹]
1,G13C C16U C71U,7.64e-05 ± 1.7e-05
2,A14G A36U A39C,< 1e-05
3,C10A A36C C50G,0.000367 ± 0.00015
4,C8G G32A U54G,< 1e-05
5,G32U G35A A64G C71U,< 1e-05
6,G9C C34U A53U,< 1e-05
7,G9C G13C C34A G62C A64G,< 1e-05
8,A12C G37U G38U,< 1e-05
9,G7A C10U G35U G43U,< 1e-05
10,A33U A53G G62C U65C,< 1e-05
11,A12G A15U G37U A42G U55A,< 1e-05
12,C10G G44U C71A,< 1e-05
13,A6U U47A U57C,< 1e-05
14,C19A A53C C71A,0.000384 ± 0.00012
15,U47A A53U U65A,0.00126 ± 0.00036
16,G40A U47A U49A C70A,< 1e-05
17,C10G A12G U47G U54C C68U,< 1e-05
18,C10U C11A G41A U55C C58G,< 1e-05
19,A52U U54A C67U,0.000187 ± 5.3e-05
20,C34A U49G,< 1e-05
21,C58A U65G C70U,6.2e-05 ± 2.7e-05
22,C10U G29U U57C,< 1e-05
23,G7C C10A C16G C61A,< 1e-05
24,A6U A14U A33G C61U,< 1e-05
25,G7A C8A U56G,< 1e-05
26,C11G G26U G43C,< 1e-05
27,A15C U31A A53G C71G,0.000222 ± 4.5e-05

row,Variant,self-cleavage kobs at 2500 uM GlcN6P [s⁻¹]
1,C8G G9U C16A A53C,< 1e-05
2,A14U U46A A52U C58A,< 1e-05
3,C16A C34A C70U,< 1e-05
4,G7U G35U G37C U46C C68A,< 1e-05
5,U31A U47C U56C,0.000498 ± 0.00011
6,A12G C16U U69G,6.28e-05 ± 2.8e-05
7,C11G U31A A42C,< 1e-05
8,C8A C16U A36C A42U,< 1e-05
9,G32U A33U G41U,< 1e-05
10,A64C C67G C68A,6.52e-05 ± 1.8e-05
11,A36G U46A C70A,< 1e-05
12,A42U G43A G60U,< 1e-05
13,G26U G32C G35U G38U G63C,< 1e-05
14,C16U G40A U69C,3.52e-05 ± 1.7e-05
15,U30C G37C G38C,< 1e-05
16,G13U U49C C50A G59A C70G,3.99e-05 ± 2e-05
17,A15U G29C C50U,< 1e-05
18,U31G U54A C68U,0.000161 ± 5.7e-05
19,G9U C50U C68U,< 1e-05
20,A14G U30A C50A,8.06e-05 ± 2.8e-05
21,G37C A42C U69A,< 1e-05
22,G7C C11U C34G U49G,< 1e-05
23,A42C A48U G66C,< 1e-05
24,A15G U55G C71U,0.00368 ± 0.0014
25,A52G U54G C68G,7.13e-05 ± 2.9e-05
26,G37U U49G U57C,< 1e-05
27,G32U A64G G66A,0.000236 ± 5.9e-05

row,Variant,self-cleavage kobs at 2500 uM GlcN6P [s⁻¹]
1,A14U G51A C58G G60U G63U U65A,< 1e-05
2,A6U A14U U31C A42G A52C A64C,< 1e-05
3,C16G U30G A39U,4.31e-05 ± 2e-05
4,U30C G35C U49A,< 1e-05
5,A14C G40U A53G,0.000325 ± 5.5e-05
6,G7U U31G C61A C70A,< 1e-05
7,A6G C11G U45A C50A,< 1e-05
8,G35C U47G C50G G66A,7.72e-05 ± 2.7e-05
9,C16A G43A C58U,< 1e-05
10,G9A A14C A15G G35C A39G A52C A53G,< 1e-05
11,A15G C34A G63A,< 1e-05
12,U55C G59U,3.25e-05 ± 1.3e-05
13,G13U A15U C71U,5.99e-05 ± 2.5e-05
14,A15G G29U U47G U54A,0.000248 ± 6.2e-05
15,A36U U55C C70G,< 1e-05
16,A12C G13A A14G U31G,7.54e-05 ± 3e-05
17,C10U C11G U57A,< 1e-05
18,A33C C34A G62U C71U,< 1e-05
19,G9A A12G U54A C58G C61G C70U,0.000354 ± 0.00012
20,G40A U47C C58U,< 1e-05
21,C34A G37A G43U,< 1e-05
22,G9C A48C G51C,< 1e-05
23,G9C G13U A48G,< 1e-05
24,A12C G29A U45G U46C,0.000151 ± 5.3e-05
25,A33G A42U U49A G60A,< 1e-05

# Variants of: B1
# Test: self-cleavage kobs at 10000 uM GlcN6P; higher = faster cleavage; RNA array
# Conditions: with glucosamine-6-phosphate
# Outline: as §1
row,Variant,self-cleavage kobs at 10000 uM GlcN6P [s⁻¹]
1,G13C C16U C71U,0.000169 ± 5.1e-05
2,U31A U47C U56C,0.000333 ± 6.1e-05
3,C11G U31A A42C,< 1e-05
4,U30C G37C G38C,< 1e-05
5,A42C A48U G66C,< 1e-05
6,C16G U30G A39U,0.000103 ± 2.8e-05
7,A14C G40U A53G,0.000591 ± 0.0001
8,U55C G59U,2.55e-05 ± 1.2e-05
9,C10U C11G U57A,< 1e-05
